Source: patent publication US20220064272A1 (TAUC3 BIOLOGICS, published 2022)
“And” between values parts separate entries of the source, which are not always exact repeats. Identical values can stand only once. One block for each binder: values may come before it.

Tests used:
[1] = target: T1, TauC3 (C-terminally truncated tau fragment ending at aspartate 421 of htau40) (human, UniProt P10636 1-738); assay: binding ELISA on coated TauC3, OD650
T1 construct: Generated and purified by Genscript; also called Human TauC3; recombinant TauC3 protein
Method in brief: (§1)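 Binding was measured by ELISA, with absorbance read at 650 nm, on coated TauC3 antigen that Genscript made and purified. ExpiCHO cells were used to express the chimeric or humanized IgG4κ antibodies. EC50 was obtained from the antibody concentration-response.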

[2] = target: T1, TauC3 (C-terminally truncated tau …); assay: SPR (Biacore) kinetics, TauC3 amine-coupled on CM5, antibody as analyte
Source text: (§2) To determine the affinity of the binding interactions, a biacore kinetic assay was developed which involved immobilizing TauC3 on a CM5 chip via amine coupling and injecting a concentration series of the respective antibody over it.

[3] = target: T1, TauC3 (C-terminally truncated tau …); assay: binding ELISA on coated TauC3, OD650; remark: listed apart in the source
Method in brief: as §1

[4] = target: T1, TauC3 (C-terminally truncated tau …); assay: binding ELISA on coated TauC3, OD650; remark: listed apart in the source
Method in brief: as §1

[5] = target: T1, TauC3 (C-terminally truncated tau …); assay: binding ELISA on coated TauC3, OD650; remark: listed apart in the source
Method in brief: as §1

[6] = target: T1, TauC3 (C-terminally truncated tau …); assay: Biacore off-rate ranking, TauC3 amine-coupled on CM5, one antibody concentration; one-phase exponential decay fit
[7] = target: T1, TauC3 (C-terminally truncated tau …); assay: binding ELISA on coated TauC3, OD650; left table (HC variants)
Method in brief: as §1

[8] = target: T1, TauC3 (C-terminally truncated tau …); assay: binding ELISA on coated TauC3, OD650; right table (HM variants)
Method in brief: as §1

[9] = target: T1, TauC3 (C-terminally truncated tau …); assay: binding ELISA on coated TauC3, OD650; remark: listed apart in the source
Method in brief: as §1

[10] = target: T1, TauC3 (C-terminally truncated tau …); assay: Biacore off-rate ranking, TauC3 amine-coupled on CM5, one antibody concentration; two-phase decay fit, slow phase; set-up: unit not given here
[11] = target: T2, full length Tau (2N4R, htau40) (human, UniProt P10636 1-758); assay: Biacore, antibody captured on Protein G chip, FL Tau injected [Fig. 26B]
T2 construct: Generated and purified by Genscript; also called FL Tau; FLT
Description: To further evaluate the binding data observed on the Octet, an off-rate ranking experiment was performed on the Biacore 200 instrument. Biacore offers greater selectivity than the Octet and facilitated the immobilization of TauC3 onto a CM5 chip via amine coupling which stabilizes the antigen. This produces higher quality data with stable baselines and good reproducible responses. Once TauC3 is immobilized, one concentration (5 nM) of antibody is added, followed by a dissociation and regeneration step (Section 8.20). The off-rates were fitted using a two-phase decay model (FIG. 25B) or a one phase decay fitting only the second off-rate (FIG. 25A). The candidates were then ranked based on the off-rates obtained using the fits and compared. The data agreed with the Octet results (albeit with a different ranking order), highlighting Tau01 HMKM, HMKO, HMKP, HMKN and HMKE as the humanized variants with the slowest off-rates. The lack of binding of FL Tau to chimeric and a humanized candidate was also confirmed by Biacore by loading the antibody onto a Protein G chip and adding 250 nM FL Tau.

[12] = target: T1, TauC3 (C-terminally truncated tau …); assay: Biacore kinetics, TauC3 amine-coupled on CM5, antibody series, 1:1 global fit
Source text: as §2

[13] = target: T2, full length Tau (2N4R, htau40); assay: binding ELISA on coated FL Tau, OD650
Method in brief: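 Binding ELISA on coated full-length tau antigen, which was made and purified by Genscript. Antibody binding was read as absorbance at 650 nm.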

[14] = target: T1, TauC3 (C-terminally truncated tau …); assay: SPR (Biacore) kinetics, TauC3 amine-coupled on CM5, 1:1 global fit
Method in brief: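 Surface plasmon resonance (Biacore) was used with purified TauC3 immobilised on a CM5 chip by amine coupling. A concentration series of each purified antibody was injected over the chip. Association rate, dissociation rate and Kd were obtained by a 1:1 global fit.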

[15] = target: T1, TauC3 (C-terminally truncated tau …); assay: binding ELISA, TauC3 coated
Method in brief: as §1

[16] = target: T1, TauC3 (C-terminally truncated tau …); assay: binding ELISA on coated TauC3, OD650; remark: listed apart in the source
Method in brief: as §1

[17] = target: T1, TauC3 (C-terminally truncated tau …); assay: binding ELISA on coated TauC3, OD650; remark: listed apart in the source
Method in brief: as §1

[18] = target: T1, TauC3 (C-terminally truncated tau …); assay: binding ELISA on TauC3 after 21 days at 37 C in PBS or mouse, human, cynomolgus serum, with non-incubated control
Description: Purified samples of the chimeric and humanized antibodies were incubated in mouse, human and cynomolgus serum for 21 days. The binding of the Tau01 HMKE, HMKM, HMKN, HMKO, HMKP candidate antibodies which had been incubated in the 3 different serums were compared with an antibody incubated in PBS and a 4° C. positive control sample by binding ELISA to TauC3 (FIG. 37). The Tau01 HMKE, HMKM, HMKN, HMKO, HMKP candidate antibodies retained their binding capability after being incubated in mouse, human and cynomolgus serum.

[19] = target: T1, TauC3 (C-terminally truncated tau …); assay: binding ELISA on coated TauC3, OD650; remark: listed apart in the source
Method in brief: as §1

[20] = target: T2, full length Tau (2N4R, htau40); assay: Octet, antibody on Protein G sensor, FL Tau in solution
Description: The TauC3 and FL Tau antigens were generated and purified by Genscript and supplied at a concentration of 2.54 mg/ml or 0.24 mg/ml respectively. Binding of the chimeric antibody to TauC3 and FL Tau was assayed by binding ELISA. […] No non-specific binding to either antigen could be observed with an isotype confirming the binding observed is specific. Binding of the mouse and chimeric Tau01 antibodies to purified TauC3, was measured using Bio-Layer Interferometry (OctetRed96, ForteBio Section 8.12). The mouse and chimeric antibodies were assayed against a concentration series from 20 nM-0.31 nM TauC3 (FIGS. 8A and B). Both the mouse and chimeric antibodies were capable of binding to TauC3 in a concentration-dependent manner. The binding of the mouse and chimeric antibodies was also tested against FL Tau but low signals or no binding was observed (FIGS. 8C and D) confirming the binding of the antibodies is specific to TauC3.

T1 sequence (P10636 other isoform, or with tags, fused parts or gaps): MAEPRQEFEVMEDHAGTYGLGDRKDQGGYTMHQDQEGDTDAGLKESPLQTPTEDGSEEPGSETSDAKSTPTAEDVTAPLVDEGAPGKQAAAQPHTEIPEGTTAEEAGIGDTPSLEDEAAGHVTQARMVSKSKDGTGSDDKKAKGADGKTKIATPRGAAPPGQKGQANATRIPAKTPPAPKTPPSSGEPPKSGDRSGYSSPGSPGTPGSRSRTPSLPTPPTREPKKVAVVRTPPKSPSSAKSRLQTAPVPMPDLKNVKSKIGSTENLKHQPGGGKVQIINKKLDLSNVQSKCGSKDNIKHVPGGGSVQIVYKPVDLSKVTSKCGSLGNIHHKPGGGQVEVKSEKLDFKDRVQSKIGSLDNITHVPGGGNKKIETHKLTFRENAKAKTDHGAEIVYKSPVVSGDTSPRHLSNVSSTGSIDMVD
T2 sequence (P10636 other isoform, or with tags, fused parts or gaps limits assumed): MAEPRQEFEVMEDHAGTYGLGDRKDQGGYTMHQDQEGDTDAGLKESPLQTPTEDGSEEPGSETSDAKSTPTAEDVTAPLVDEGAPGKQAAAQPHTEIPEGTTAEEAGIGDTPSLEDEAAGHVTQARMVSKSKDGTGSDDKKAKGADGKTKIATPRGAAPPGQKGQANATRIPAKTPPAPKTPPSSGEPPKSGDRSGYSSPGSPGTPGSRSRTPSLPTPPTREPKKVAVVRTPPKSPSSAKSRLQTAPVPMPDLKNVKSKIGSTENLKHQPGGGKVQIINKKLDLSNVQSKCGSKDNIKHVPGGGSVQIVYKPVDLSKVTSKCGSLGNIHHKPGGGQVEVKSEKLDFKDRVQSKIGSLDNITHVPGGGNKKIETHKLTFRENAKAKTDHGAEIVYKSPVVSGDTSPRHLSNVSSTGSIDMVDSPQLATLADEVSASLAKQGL

EC50 [1]: 0.502 nM | Kd [2]: 1.2 nM | EC50 [3]: 0.84 nM | EC50 [4]: 0.502 nM | EC50 [5]: 0.502 nM | koff [6]: 0.0114 s⁻¹ | EC50 [7]: 0.73 nM | EC50 [8]: 0.73 nM | EC50 [9]: 0.628 nM | Kslow [10]: 0.012 | binding result [11]: no binding | Kd [12]: 1.24 nM | koff [12]: 0.0249 s⁻¹ | kon [12]: 2.02e+07 M⁻¹ s⁻¹
B1: Tau01 HCKB HuG4K (antibody, V domains shown)
VH: LVQLVESGGGLVQPGGSLKLSCAASGFTFNTYAMNWVRQASGKGLEWVGRIRSKSNNYATYYAASVKGRFTISRDDSKSMAYLQMDSLKTEDTAVYYCVGGGDFWGQGTLVTVSS
VL: DIQMTQSPSSLSASVGDRVTITCRASQEISVYLSWFQQKPGKAIKRLIYGAFTLQSGVPSRFSGSRSGSEYTLTISSLQPEDFATYYCLQYVRYPWTFGGGTKVEIK
notes: human IgG4 kappa (HuG4K)

binding result [13]: no binding (tested: about 30 nM) | EC50 [1]: 0.474 nM | EC50 [3]: 0.58 nM and 0.54 nM and 0.63 nM | EC50 [4]: 0.474 nM | EC50 [5]: 0.474 nM | koff [6]: 0.000414 s⁻¹ | EC50 [7]: 0.438 nM and 0.483 nM and 0.538 nM and 0.73 nM | Kd [14]: 0.057 nM | koff [14]: 0.000741 s⁻¹ | kon [14]: 1.29e+07 M⁻¹ s⁻¹ | EC50 [8]: 0.438 nM and 0.483 nM and 0.538 nM and 0.73 nM | EC50 [15]: 0.7 nM and 0.65 nM | EC50 [9]: 0.724 nM | EC50 [16]: 0.724 nM | Kslow [10]: 0.000414 | EC50 [17]: 0.298 nM and 0.313 nM | EC50 (read off the curve) [18]: ~0.5 nM | EC50 [19]: 0.71 nM | Kd [12]: 0.0574 nM
B2: MoTau01 HuG4K chimeric antibody (antibody, V domains shown)
VH: EVQVVESGGGLVQPKGSLKLSCAASGFTFNTYAMNWVRQAPGKGLEWVARIRSKSNNYATYYADSVKDRFTISRDDSQSMVYLQMNNLKTEDTAMYYCVGGGDFWGQGTALTVSS
VL: DIQMTQSPSSLSASLGERVSLTCRASQEISVYLSWFQQKPDGTIKRLIYGAFTLDSGVPKRFSGSRSGSDYSLTISSLESEDFADYYCLQYVRYPWTFGGGTKLEIK
notes: Mouse variable regions with human IgG4 / kappa constant regions (pHuG4, pHuK); also called chimeric Tau01

B3: MoTau01 mouse antibody (antibody, V domains shown)
VH: B2 VH
VL: B2 VL
notes: Mouse hybridoma antibody; also called mouse Tau01; murine Tau01
binding result [20]: no binding (tested: not printed on the sheet)
